These results are taken from patent US20150246949A1, “Desmoglein 2 (DSG2) Binding Proteins and Uses Therefor” (UNIVERSITY OF WASHINGTON THROUGH ITS CENTER FOR …, priority 2012, published 2015).

Usually koff stands for the rate constant with which the complex falls apart. One may read the kon as the rate constant with which the complex forms. Broadly, the Kd is a measure of binding affinity in units of concentration.

The target of assay [1] is T1, human DSG2 on cells (HeLa cells; polarized T84 cells) (human, UniProt Q14126 50-1118).
T1 sequence: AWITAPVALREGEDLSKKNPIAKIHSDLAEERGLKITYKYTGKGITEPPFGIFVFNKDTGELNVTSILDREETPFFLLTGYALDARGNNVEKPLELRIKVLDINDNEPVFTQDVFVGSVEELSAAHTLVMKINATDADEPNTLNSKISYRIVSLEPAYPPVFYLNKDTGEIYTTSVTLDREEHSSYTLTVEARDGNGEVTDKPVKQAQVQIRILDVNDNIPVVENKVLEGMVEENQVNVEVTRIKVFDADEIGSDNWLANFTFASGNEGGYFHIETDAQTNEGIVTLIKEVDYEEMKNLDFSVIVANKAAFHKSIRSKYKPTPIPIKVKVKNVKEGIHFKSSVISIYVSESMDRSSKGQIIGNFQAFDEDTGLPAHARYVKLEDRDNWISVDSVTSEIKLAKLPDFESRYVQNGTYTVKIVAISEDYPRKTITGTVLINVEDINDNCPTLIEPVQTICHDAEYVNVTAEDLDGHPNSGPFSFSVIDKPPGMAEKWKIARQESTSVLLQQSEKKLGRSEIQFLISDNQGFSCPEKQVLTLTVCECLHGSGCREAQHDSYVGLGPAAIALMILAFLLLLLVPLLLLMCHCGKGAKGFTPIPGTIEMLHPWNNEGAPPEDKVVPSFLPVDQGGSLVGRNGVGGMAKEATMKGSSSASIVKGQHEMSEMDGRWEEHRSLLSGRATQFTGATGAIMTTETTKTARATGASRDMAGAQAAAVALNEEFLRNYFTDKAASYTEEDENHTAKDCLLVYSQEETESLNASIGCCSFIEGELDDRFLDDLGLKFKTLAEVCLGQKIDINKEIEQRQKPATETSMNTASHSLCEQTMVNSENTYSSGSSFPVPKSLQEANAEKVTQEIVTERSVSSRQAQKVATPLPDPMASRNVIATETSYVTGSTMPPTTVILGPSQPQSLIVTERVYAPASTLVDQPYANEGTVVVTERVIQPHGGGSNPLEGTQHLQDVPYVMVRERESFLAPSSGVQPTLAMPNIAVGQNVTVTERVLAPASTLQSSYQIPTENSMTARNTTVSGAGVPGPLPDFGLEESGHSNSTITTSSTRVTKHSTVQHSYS
Description: cell-based or functional assay.

Assay [2] concerns the target T1, human DSG2 on cells (HeLa cells; …). The experiment in a line: cell-based or functional assay. The source holds these as a separate data set.
The target of assay [3] is T2, Recombinant human DSG2 protein (Leinco Technologies) (human, UniProt Q14126 50-609).
T2 construct: also called soluble DSG2; soluble recombinant DSG2
T2 sequence: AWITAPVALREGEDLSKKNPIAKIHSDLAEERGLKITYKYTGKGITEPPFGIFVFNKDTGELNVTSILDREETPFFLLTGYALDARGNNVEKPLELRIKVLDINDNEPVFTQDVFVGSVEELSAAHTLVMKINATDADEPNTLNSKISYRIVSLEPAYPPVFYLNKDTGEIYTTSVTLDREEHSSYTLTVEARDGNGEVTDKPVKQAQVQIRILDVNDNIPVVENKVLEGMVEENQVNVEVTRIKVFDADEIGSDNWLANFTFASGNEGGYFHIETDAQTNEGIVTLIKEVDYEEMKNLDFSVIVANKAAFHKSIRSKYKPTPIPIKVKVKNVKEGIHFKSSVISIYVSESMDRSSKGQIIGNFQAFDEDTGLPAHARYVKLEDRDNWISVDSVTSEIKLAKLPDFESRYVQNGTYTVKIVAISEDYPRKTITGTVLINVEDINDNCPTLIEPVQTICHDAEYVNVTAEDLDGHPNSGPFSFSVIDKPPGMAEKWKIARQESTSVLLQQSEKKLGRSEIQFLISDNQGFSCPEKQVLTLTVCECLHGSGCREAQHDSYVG
Description: SPR (BIAcore 3000), DSG2 immobilised on CM4 chip, knob injected. For orientation: Surface plasmon resonance follows binding to a sensor surface in real time, without labels.

Assay [4] addresses T2, Recombinant human DSG2 protein (Leinco …). The experiment in a line: SPR (BIAcore 3000), DSG2 immobilised on the sensor chip, knobs injected at 2.5 to 10 µg/ml, BIAeval.
For assay [5] the target is unchanged. Description: SPR (BIAcore 3000), DSG2 immobilised, BIAeval; as printed in this row, but kd/ka of the row gives 24.9 nM and paragraph 239 gives 405-fold over wt: the KD cells of Y250F and V239D look interchanged on the sheet.
For assay [6] the target is unchanged. The experiment in a line: SPR (BIAcore 3000), DSG2 immobilised, BIAeval; as printed in this row, but kd/ka of the row gives 11.4 nM and paragraph 239 gives 885-fold over wt: the KD cells of Y250F and V239D look interchanged on the sheet.
In assay [7] the target is T3, soluble CD46 (UniProt P15529 35-343).
T3 construct: also called sCD46
T3 sequence: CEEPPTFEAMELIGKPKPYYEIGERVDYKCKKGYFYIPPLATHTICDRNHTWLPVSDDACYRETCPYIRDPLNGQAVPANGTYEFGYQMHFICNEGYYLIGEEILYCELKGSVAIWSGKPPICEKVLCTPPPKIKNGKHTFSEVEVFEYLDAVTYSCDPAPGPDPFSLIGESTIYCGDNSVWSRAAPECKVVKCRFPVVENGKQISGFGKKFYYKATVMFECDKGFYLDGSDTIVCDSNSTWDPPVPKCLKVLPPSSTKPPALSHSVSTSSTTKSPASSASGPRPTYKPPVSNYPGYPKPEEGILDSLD
The experiment in a line: Western blot, soluble CD46 as probe, anti-CD46 mAb.

For assay [8], the target named is T2, Recombinant human DSG2 protein (Leinco …). Description: Western blot of the blotted knob probed with soluble hDSG2, anti-DSG2 (6D8), HRP-anti-mouse IgG [upper panel]. In general terms: In western blotting, separated proteins are transferred to a membrane and probed.
Assay [9] has the same target. The experiment in a line: not given; SPR on immobilised DSG2 by the context (FIG. 7).

Positions count from the first letter of the chain named. In names and notes the source's numbering stands.

B1: JO-1 (self-dimerizing trimeric wild-type Ad3 fiber knob) (designed binder)
chain: MKVSALKEKVSALKEKVSALKEKVSALKEKVSALKEGSGGGSGGGSGGGSNSIALKNNTLWTGPKPEANCIIEYGKQNPDSKLTLILVKNGGIVNGYVTLMGASDYVNTLFKNKNVSINVELYFDATGHILPDSSSLKTDLELKYKQTADFSARGFMPSTTAYPFVLPNAGTHNENYIFGQCYYKASDGALFPLEVTVMLNKRLPDSRTSYVMTFLWSLNAGLAPETTQATLITSPFTFSYIREDD
As to B1, the “IC50 (read off the curve), % GFP-positive cells after Ad3-GFP infection of HeLa cells” value in [1] was around 5 µg/mL. Further, the “IC50 (read off the curve), GFP MFI after Ad3-GFP infection of HeLa cells” value in assay [2] is around 0.6 µg/mL.

B2: Ad3 fiber knob mutant V239D without dimerization domain (ligand)
chain: NKLCSKLGNGLTFDSSNSIALKNNTLWTGPKPEANCIIEYGKQNPDSKLTLILVKNGGIVNGYVTLMGASDYVNTLFKNKNVSINVELYFDATGHILPDSSSLKTDLELKYKQTADFSARGFMPSTTAYPFDLPNAGTHNENYIFGQCYYKASDGALFPLEVTVMLNKRLPDSRTSYVMTFLWSLNAGLAPETTQATLITSPFTFSYIREDD
notes: range 108-319; also called V239D/noDD; not shown: N-terminal 6-His tag of pQE30 and linker
As to B2, the “fold higher affinity than wt Ad3knob/noDD” value in assay [3] came to 405 fold. Also, in assay [4], the koff was 0.00266 s⁻¹ and the kon came to 107000 M⁻¹ s⁻¹. For the same molecule, the Kd in assay [5] turned out to be 11.4 nM.

B3: Ad3 fiber knob mutant Y250F without dimerization domain (ligand)
chain: B2 chain with D132V, Y143F
notes: range 108-319; also called Y250F/noDD; not shown: N-terminal 6-His tag of pQE30 and linker
Turning to B3, the “fold higher affinity than wt Ad3knob/noDD” value in [3] is 885 fold. Further, in assay [4], the koff was 0.00264 s⁻¹ and the kon amounted to 232000 M⁻¹ s⁻¹. Further, the dissociation constant (Kd) in assay [6] is 24.9 nM.

B4: Ad3-S/Kn (ligand)
chain: NSIALKNNTLWTGPKPEANCIIEYGKQNPDSKLTLILVKNGGIVNGYVTLMGASDYVNTLFKNKNVSINVELYFDATGHILPDSSSLKTDLELKYKQTADFSARGFMPSTTAYPFVLPNAGTHNENYIFGQCYYKASDGALFPLEVTVMLNKRLPDSRTSYVMTFLWSLNAGLAPETTQATLITSPFTFSYIREDD
notes: also called wild-type Ad3 fibers
In the case of B4, the binding result in assay [7] and in [8] was “no binding” each time.

B5: JO-4 (affinity-enhanced version of JO-1) (designed binder)
chain: MRGSHHHHHHGSKVSALKEKVSALKEKVSALKEKVSALKEKVSALKEGSGGGSGGGSGGGSNSIALKNNTLWTGPKPEANCIIEYGKQNPDSKLTLILVKNGGIVNGYVTLMGASDYVNTLFKNKNVSINVELYFDATGHILPDSSSLKTDLELKYKQTADFSARGFMPSTTAYPFVLPNAGTHNENFIFGQCYYKASDGALFPLEVTVMLNKRLPDSRTSYVMTFLWSLNAGLAPETTQATLITSPFTFSYIREDD
As for B5, the Kd in assay [9] worked out at 11.4 nM.
